Reference: PMC12902261

Molecular target: NbMTA (Nicotiana benthamiana) (UniProt A0A1J6JV69)
Test: BLI
Conditions: Octet RED 96, Super Streptavidin sensors, 100 nM biotinylated ssRNA loaded, NbMTA (50 nM stated; serial dilutions), equilibration in 0.01 M saline, PBS …

| Sequence | Kd [µM] |
| --- | --- |
| GGGAAAAAUAAAUCCAAAAGAAUUCAAGCCUUGAAGUUUCGCCAUGCUCGUGACAAAAGGGCUGGUUUUGAAAUUGACAACAAUGAUGACACAAUAGAGGAAUUCUUUGGAUCUGCAUACAGGAAAAAGGGAAAAGGUAAAGGUACCACUGUUGGUAUGGGCAAGUCAAGCAGAAGGUUUGUUAA [PVY NIa peak 2-1 probe] | > 30 |
| UCUGGGACACAUACUGUGCCGAGAAUCAAGGCUAUCACGUCCAAAAUGAGAAUGCCCAAAAGCAAGGGAGCAACCGUGCUAAACUUAGAACACUUGCUUGAGUAUGCUCCACAACAAAUUGAUAUUUCAAAUACUCGGGCAACUCAAUCACA [PVY CP peak 3 probe] | 3.1 |
| UGCAGUUCGUUCAUCACCAAGCUACGACGUCACUUGCAAAGGAUCUCAAGUUGAAGGGGACUUGGAAGAAGUCAUUAGUGGCCAAAGACUUGAUCAUAGCAGGCGCUGUUGCAAUUGGUGGAAUAGGACUCAUAUAUAGUUGGUUCACACAAUCAGUUGAGACUGUGUCUCACCAA [PVY 6K2 peak 2-1 probe] | > 30 |
